Test: soluble on expression in E. coli; label from the status in PepcDB or PDB records

| Sequence | soluble on expression in E. coli |
| --- | --- |
| MPPAVPAAAATARQSASGRERNFKDKDKPESVRNSNIVAAKAVADAVRTSLGPRGMDKMIQSGNGDVTITNDGATILNQMSVIHPTAKMLVELSKAQDIEAGDGTTTVVVMAGALLDAAQNLLSKGIHPTTISESFQSAAAEAEKILDEMSSPVDLSNDALLNKMATTSLNSKVVSQHSWLLAPMAVNAVKKIINSENDSNVNLKMIKIIKKMGDTVEESELIEGALIDQKTMGRGAPTRIEKAKIGLIQFQISPPKTDMENQVIITDYAQMDRALKEERQYLLEICKQIKAAGCNVLLIQKSILRDAVNELALHFLAKMKIMCIKDIEREDIEFYSRILGCRPVASVDHFNADALGYADLVEEIPTGGDGKVIKVTGVQNPGHAVSILLRGSNKLVLEEADRSIHDALCVIRCLVKKKALLPGGGAPEMEIAVKLRNLAQTQHGATQYCWRAFADALELIPYTLAENAGLSPIHTVTELRNNHANGNSSYGVNVRKGYVTDMVEEDVVQPLLVTASAIKQASECVRSILKIDDIVMAVR | not soluble |
| TKAVTFYEDINYGGASVSLQPGNYTLSQLNTAKIPNDWMTSLKVPSGWTVDVYENDNFTGTKWTYTSDTPWVGNDANDKMTSVKIYST | soluble |
| MNLRNGWNIEFQKNIHMYCHRLIATKGDKHYEVPCEDTPAGFVGIWLYGLELDEMTLSDLQAGLVEWAESSGCTYRIYNTRGVYLTNEPHVQADA | not soluble |
| MSQNHVIELANTLKQRPIVCDYTGGRFRLTNEGLTYIGIDRDGTPLPPRWICAPLHIVAKTRDAQSGEWGRLLEWQDDDGITHQWAMPLALLQGDASDVRRELARLGLSISPHRTARDLLASYLQVFPVDARARCVDKLGWHGDVFVTASQCIGQSTEKIVFQNTNAIEPAMSIKGSVDKWRDSIGRLASGNSRLVFAISVALAPVLAKIVGEDSGGFHFRGASSSGKSTALSLAASVWGNPQSYCRLWRSTTNGLEGLAALHNDGLLILDELSQMDPREAGEAAYLLANGQGKTRASRTGTVRQSSRWSLFFLSAGEESLTALMAKSGQRINAGQEIRLADIEADAGCQMGIFETIHDQLSPASMALSLKKYSSGYHGAIGRAWLNQVVANRQTISRFITDTIQSFVDIVIQPDATGQIIRVARRFALVAAAGELASQFGLTGWKKGESFHAAKTCFIAWQDAFGVDGHREDRAIMAQVRAFFESHGASRFDNVNSPNNDKILNRAGFYHTDGEGFRIYMVLTETYKNELCKGFDQRTVTRVLLQAGWLKPASDGKASHKPRIKGVGTPRLYVFTGKIWGGELEHHHHHH | soluble |
| MKLKELVKQFIPMNYWNTRRKASIIRQQGKVADFWAPILKAYYNGEIERYSLKPKKKLGTQKVIWQYWGQGIDKDELPEIIQICFDSVDRNKNDYQVIRLTDITISEYIDLPDFVWRKREYVQFTRTFFSDLLRVALLSTYGGVWLDATILLTGSIPAVYEKTDFFMYQRSDEEKNKKYWENVYAYYFGWEPNFKVRMLSSILFAQKESEIISTLTDLLLYFWKTQDSLPDYFCFQILFNELVANYRPAENCPIVNDCIPHIIQTKINGTYDDVSFEEALELSNIHKMTYFDAAAMIRLKMVLRLARNALEHHHHHH | soluble |
| MSLEREKVELFKEVLKKLHKGEDVESLKKQFGELLSQIPPFEIPVIEQELLKSGEIDVRDIIKMCDLHVEFFRGAVSEAGREIEKLPNGHPLRTLYEENKQILKDAEALSLLASSMFSLPKDDPRRKQFYEKLVQHVSELHRIGLTHYTREEMLIFPYIERRGITAVPTVLWSKHDETRLKIRLLLNLLKKEESDERLKEEALELSRMLSDMVFRENNILYPTLKVLLTEGEWKAIKMLEKDIGYYKIEVTEEWETPEKPLLPHRNCLRRPIPFRGLGGSRHVYHLQIQEGHHHHHH | soluble |
| MGSDKIHHHHHHMKIGFVGAGVGTLHAALLLTKRYPEVEITIFEKESRAGGRLASVDFETGGRIDQGPTIVLMPGKLQEQLREAGLEGVELERIDPLYDLHFDDGTIVTKQADVVDQTIAIERQFGEGRGFQEFMQQKAKDYDVSVSKFLERTYSRKRDLLHPDMLAPLVKMHAMETAHDHLKRFFKSKHLRMAYSFPTFYIGGNPYTTPSIYGLIPYREQEEGVWYVKGGYFSLAERMYEALVERGVTFKFNQPVDRVLIQQGQTKGLVAAGQEYVYDTVVLNGEFPLMEYLVEGKQPKKYVPSGGTLLLYFKIDGKVDLPVHRFLMPSDLKPLMTSIFKKNELPENPAVYLFNPSKIDDALTASGTSVVYALVPSPRGFDQANYEAHGFIDQILDKIEQHLPGFQSQVTEMKIRTPQDAQDFGLYEGGSFGIAPTIRQSAALKTQAKPYADIERLYAVGASVHPCGGVPIVMMGATLLVNRMEQEMRWKNGYSDERISSM | not soluble |
| MDVDLASVEVVFAQKLACGEPATRQRALRVLHDWIRDQSAKKHFDDADLMRLCKGLHYVMWMQDKMILQEELADRIGGLINIFTSEEEKVRFVACFLKSLSKEWPHIDRWRMDKFLMEVRRMVRACFTHLAELKWKKDIRDEYWKVFQETTISTDKSFNEALKFHFASILLDELDAAGGLTKKQVTACLKPYIELLGNKDISEYLFTSLYEEIFKTILQQKSDLITAVEEGEEMDQGGIEFSYKEIGALLFEVGKQEHLNAKRRKKIYDLVKKFDKSSRGQDPLHFETPVPKERLTRHDYEEAEKKAIVLANSFKQERKSSRKVKSQIKKRAREAAEAARQENGDDVPDDEIAEVKKGNGKKTAVPKVKKGRPLLKAKGVGKKRMVGGLKRKAGKKN | not soluble |
| FWMELQAVDSYQVKASGILTGADRKIITMLYQPLMGAECLALYQTLFTEVEENRLWSEAHSHVQLLNMLDISLKALFEARLKLEGLGLLKSYVKTENDQRFYIYEILPPLSPEKFFSDGLLNIYLYSKIGNAQFQRLRRFFADETFETDTYSEITRSFQDVFEPFKGGSSAVPSESSQVLVDKIVPKEIEFDDASFDFNLFLSLLSPGMIAREKITKEVRQTILKLHGIYQVSEKDMPSYLYRALDANGEIDIVYLRKIVREGYTIENGAPPKLQMKQETPGKKEPEEALNDEEALQVYLESITPFQLLVDISDGAIPAETDLRVVEEVMNQQNLPVPVMNVLIEYVLLRLDRKLSKNYMMTIAAHWKRKNVKTAKEAMDLAWQEHEKYKRLQEEPATPKNNNYNRNYQKSTRKEILPDWFDKEQVAPAENKMTDKEKQTLEEQVREIKERLNKR | not soluble |
| MGSDKIHHHHHHSCENEFDVSDKADSLISVTVNTLNNQAAYNVGETAQAELWIQRGGLKDASGKVQFVVDPLLLDSLNQEDKTNYELLPENCYEMTNTEFTVDKNELCGYITYHPEKILALSAYNETKYVLPLRLISNDLAINPARNTSFLAFTILEPIVHISNAGVYNINPDLTSTMDIQIGVPFTNKWDILCNLTEDLSLIDEYNQINKVNFTLLPENAYTAPESVTLQEGVSQITASYQLKNNLVPGNYILPIKIGSITASQGGVPNNSLVIDEESNVLFCIVKEGNKINKSGWEVIECSSEHAGNEATYMIDDNESTYWHCKFKNEAGSSVPPFHFIIDMKKEITIAQIDLLNRGDGAANNIKWVEFYASNNNSEWDKIGAGDFNDEGTRATFRYYVKSTKARYLKLIIPEGYGNNCPPAAIRELTVYGLEGNN | not soluble |
| MHVTLVEINVHEDKVDEFIEVFRQNHLGSVQEEGNLRFDVLQDPEVNSRFYIYEAYKDEDAVAFHKTTPHYKTCVAKLESLMTGPRKKRLFNGLMP | soluble |
| MDVSDSIDWSKMTLQKISVRIEGHATSVSLEQPFLDILKTIARKKGQSLAFIITDIDSKRPQQVNLSSSLRIYALQSVLIQRL | not soluble |
| NCHIFKTKAKESQGASPTLGQSEAYHRQNKPYEQQPYGFGVGKKMTSSSKSKVPIFKSFNLKSYQRNHYYSSKKERKHGSPDIDSLFHETNGASKVRMTDAGKMDTNSQFQEIWEILGKNAYTHKSYSEDPNSCLGSALSDHEEEEEAGKQQQQQQQQQQQQQHYGMTSKSSSPDEEKKNNKEPKRESRVSPEENGEEETGHKQFKLPKTSTFSSGSHDSNLQSPFYNHEYRHYARSKFECKNQFRKSVSPIKEIPATTSANEGWNILRDIIEKLNISNVDDRNKDLLFRRDEIGDKNHSDSIDIENLSIKEPKGMKRRKKDDISLEELFQSLPREKDYFMMDAINDSLESINLFKKPKTTQSHEQGGTFAQAESNRAKFKPLLEQCGITPEI | not soluble |
| MGSDKIHHHHHHMNYTQGSLFENIENIPLAGRMRPRNLSDYIGQEHILEKGKALRNMLEKDSITSMILWGPPGVGKTTLAMIIASTTKCNFVEFSAATSGIKEIKDIMIKAEKDRLFGIRTLLFIDEIHRFNKSQQDTFLPHVEKGDIILIGATTENPSFEVNSALLSRCRVFVLKPLSNNDIVKLLKNALTDTRGFKNKNIQISEDLLTLIAVYSNGDARTALNVLEMAVLSSKLEHGVVTINKGILEDCMQNKALIYDKNGEEHYNLISALHKSMRNSDVDAAIYWLARMLEGGEDPLYIARRLIRFSSEDIGVADTNALNVTVNVYNSCHYIGMPECSVNLTEAVVYLSLAPKSNSIYMAYEKAKKDAKETLASGVPLHLRNAPTKLMSDLGYSKGYKYAHDFDNKVVDMQCLPDNLKDEKYYFPTTEGREKLFKERLHYIKKKKHTVNKSI | not soluble |
| MGSDKIHHHHHHMNILVIGANGGVGSLLVQQLAKENVPFTAGVRQSDQLNALKSQGMKAILVDVENDSIETLTETFKPFDKVIFSVGSGGNTGADKTIIVDLDGAVKSMIASKEANIKHYVMVSTYDSRRQAFDDSGDLKPYTIAKHYADDYLRRSGLNYTILHPGALTNAAGSGKIEAAQYFDGKGEIPREDVATVLKEIVTSNHFNHQEFQIISGEQDIKDALTQFEIEKD | not soluble |
| MNAPIEPHRFTLEPFEAHRFANLCGQLDEHLRLIEQRLDIEIRNRGNQFELIGETTQTRSAENLLRRLYRETKGTELTPDMVHLFLQESGVDGLDNHPAAEVGVSLRTKKGMIRPRGLNQQRYVKEVLSNDINFGIGPAGTGKTYLAVACAVDALEREQIRRILLVRPAVEAGEKLGFLPGDLAQKIDPYLRPLYDALYEMLGFEYVAKLIEKQVIEVAPLAYMRGRTLNNSFIILDESQNTTVEQMKMFLTRIGFGSTAVITGDITQVDLPKGTRSGLTHVIDVLKDVPGISFTHFKPKDVVRHPLVQRIVEAYERFDDQLSDGPSGNNGYSRDKNRNA | not soluble |
| MGSDKIHHHHHHMNVSIRLPRFEFDDKILEQGAEISRRLNQLRMEKFPPNATKTLRTFSMAEVAHYLGVSQNNLKRLHLEGKGPLPDQSPSGRRSYTATQMLELRQFLDQHGRTEVKKYVPHRKLGDKLQVVAVVNFKGGSGKTTTAAHLAQHLALTGHRVLAIDLDPQASLSALHGFQPELDRNLSLYEAIRYDDERRSIADVIIPTNFPGLDIIPANLELQEYEYDTPLAMQDKTSSAGRQFFTRMAKALSEVDDRYDVVVVDCPPQLGYLTLTAMSAATSVLITVHPQMLDLMSMSQFLLMLGGILKTIKAAGAAIELDWFRYLITRYEPTDIPQAQMVGFMQSMLAGQILENPMLKSTAISDAGLTKQTLYEVEKSAFTRSTYDRALESLDAVNAEIVTLIHRAWGRS | not soluble |
| STRERLLSALEDLEVLSRELIEMLAISRNQKLLQAGEENQVLELLIHRDGEFQELMKLALNQGKIHHEMQVLEKEVEKRDSDIQQLQKQLKEAEQILATAVYQAKEKLKSIEKARKGAISSEEIIKYAHRISASNAVCAPLTWVPGDPRRPYPTDLEMRSGLLG | not soluble |
